The text below walks through data of US20250075002A1 (BEIGENE SWITZERLAND, published 2025).

Broadly, the koff is the first-order rate constant of dissociation. A low value points to slow dissociation. In general, kon refers to the second-order rate constant of association. A high value points to faster complex formation. For orientation: EC50 means the concentration that produces a half-maximal response. By Kd is commonly meant a measure of binding affinity in units of concentration.

Like-named read-outs stand apart in the source and are kept apart here.

The target in experiment [1] is T1, cyno CD16-His6 (cyno, UniProt Q8SPW2 17-208).
T1 construct: Bought ECD fragment; not shown: six-histidine tag (His6)
Kind of experiment: SPR; VHH-Fc captured on anti-human Fc surface.

Experiment [2] concerns the target T2, human CD16A (F158) on NK92mi cells (human, UniProt P08637 17-254).
T2 construct: NK92mi cells co-transduced with CD16A (F158) and FcRgamma cDNAs; also called NK92mi/CD16A F158
As to the kind of experiment: flow cytometry, biotinylated VHH-Fc on NK92mi/CD16A 158F cells, with 10 mg/ml human IgG1 CB6 as competitor. For orientation: A flow cytometer gives signals particle by particle.

Experiment [3] addresses T3, human CD16A-His6 (F158) (human, UniProt P08637 17-208).
T3 construct: Bought ECD fragment; also called human CD16A (F158); not shown: six-histidine tag (His6)
Kind of experiment: SPR; VHH-Fc captured on anti-human Fc surface; row head prints 'KD (nM)', koff/kon shows M. On the technique in general: SPR reads the build-up and loss of mass on a sensor chip optically.

In experiment [4] the target is T4, human CD16A-His6 (V158) (human, UniProt P08637 17-208).
T4 construct: Bought (Sino Biologics) ECD fragment; also called CD16A 158V; human CD16A (V158); not shown: six-histidine tag (His6)
The experiment is described as above.

In experiment [5] the target is T2, human CD16A (F158) on NK92mi cells. As to the kind of experiment: flow cytometry on NK92mi/CD16A 158F cells.
The target in experiment [6] is T5, human CD16B (NA1) on NK92mi cells (human, UniProt O75015 17-200).
T5 construct: also called NK92mi/CD16B (NA1); NK92mi/CD16B NA1
T5 chain: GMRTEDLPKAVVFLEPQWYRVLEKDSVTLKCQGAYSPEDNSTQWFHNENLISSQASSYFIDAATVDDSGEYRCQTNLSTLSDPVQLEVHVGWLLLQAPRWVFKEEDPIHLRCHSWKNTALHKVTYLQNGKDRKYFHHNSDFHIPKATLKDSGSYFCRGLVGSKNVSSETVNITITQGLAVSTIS
As to the kind of experiment: flow cytometry on live NK92mi/CD16B NA1 cells, 300 nM VHH-Fc.

The target of experiment [7] is T1, cyno CD16-His6. As to the kind of experiment: SPR; VHH-Fc captured on anti-human Fc surface; column head prints 'KD (nM)', koff/kon shows M.
Experiment [8] addresses T2, human CD16A (F158) on NK92mi cells. As to the kind of experiment: flow cytometry, biotinylated VHH-Fc on NK92mi/CD16A 158F cells, without human IgG1 (CB6).
Experiment [9] concerns the target T6, human CD16B-His6 (NA1) (human, UniProt O75015 17-200).
T6 construct: Bought ECD fragment; also called CD16B NA1; human CD16B (NA1); not shown: six-histidine tag (His6)
T6 chain: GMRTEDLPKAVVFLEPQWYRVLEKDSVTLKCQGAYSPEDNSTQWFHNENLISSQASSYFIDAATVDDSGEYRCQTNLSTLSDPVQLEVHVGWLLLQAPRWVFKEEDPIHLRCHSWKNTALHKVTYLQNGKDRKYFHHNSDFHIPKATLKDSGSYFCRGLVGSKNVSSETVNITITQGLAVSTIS
Kind of experiment: SPR; VHH-Fc captured on anti-human Fc surface; row head prints 'KD (nM)', taken as M like the rest of the table.

The target in experiment [10] is T7, human CD16B-His6 (NA2) (human, UniProt O75015 17-200).
T7 construct: Bought ECD fragment; also called CD16B NA2; human CD16B (NA2); not shown: six-histidine tag (His6)
T7 chain: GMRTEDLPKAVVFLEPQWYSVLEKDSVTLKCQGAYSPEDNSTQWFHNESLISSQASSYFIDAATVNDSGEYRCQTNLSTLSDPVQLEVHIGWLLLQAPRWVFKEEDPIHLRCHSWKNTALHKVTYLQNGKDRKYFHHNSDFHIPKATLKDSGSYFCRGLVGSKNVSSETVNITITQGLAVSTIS
The experiment is described as above.

Experiment [11] has as its target T3, human CD16A-His6 (F158). As to the kind of experiment: SPR; VHH-Fc captured on anti-human Fc surface.
Experiment [12] deals with T4, human CD16A-His6 (V158). As to the kind of experiment: SPR; VHH-Fc captured on anti-human Fc surface.
In experiment [13] the target is T8, human CD16B (NA2) on NK92mi cells (human, UniProt O75015 17-200).
T8 construct: also called NK92mi/CD16B (NA2); NK92mi/CD16B NA2
T8 chain: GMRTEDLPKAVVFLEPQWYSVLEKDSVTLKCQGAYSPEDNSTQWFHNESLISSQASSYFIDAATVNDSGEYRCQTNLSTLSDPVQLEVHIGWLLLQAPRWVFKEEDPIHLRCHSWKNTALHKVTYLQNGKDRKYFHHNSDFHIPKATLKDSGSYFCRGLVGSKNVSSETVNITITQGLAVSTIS
As to the kind of experiment: flow cytometry on live NK92mi/CD16B NA2 cells, 300 nM VHH-Fc.

Experiment [14] has as its target T2, human CD16A (F158) on NK92mi cells. Kind of experiment: flow cytometry on live NK92mi/CD16A 158F cells.
Experiment [15] has as its target T3, human CD16A-His6 (F158). As to the kind of experiment: SPR; VHH-Fc captured on anti-human Fc surface. The source holds these as a separate data set.
The target in experiment [16] is T4, human CD16A-His6 (V158). Kind of experiment: SPR; VHH-Fc captured on anti-human Fc surface. This is another data set of the same source.
Experiment [17] has as its target T6, human CD16B-His6 (NA1). As to the kind of experiment: SPR; VHH-Fc captured on anti-human Fc surface; row head prints 'KD (nM)', taken as M like the rest of the table.
Experiment [18] deals with T7, human CD16B-His6 (NA2). Described as above.
For experiment [19], the target named is T3, human CD16A-His6 (F158). As to the kind of experiment: SPR; VHH-Fc captured on anti-human Fc surface; row head prints 'KD (nM)', text gives 0.08 nM, so M.
Experiment [20] concerns the target T4, human CD16A-His6 (V158). Described as above.

T1 sequence (Q8SPW2 17-208): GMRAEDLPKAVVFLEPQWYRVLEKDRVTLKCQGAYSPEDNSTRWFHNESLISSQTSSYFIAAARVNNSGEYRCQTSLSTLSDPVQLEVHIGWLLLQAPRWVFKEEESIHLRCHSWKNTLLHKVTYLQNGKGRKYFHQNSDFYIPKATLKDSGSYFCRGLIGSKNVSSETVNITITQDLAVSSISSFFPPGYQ

B1: BG525P (VHH-Fc) (VHH)
chain: EVQLVESGGGLVQPGGSLRLSCAASGRTFGSYAVGWFRQAPGRGREFVAAIRRSDGTTDYVDSVKGRFTISRDNAKNTVYLQMNSLKPEDTAVYYCAASDSDYEPLGDYWGQGTLVTVSSEPKSSDKTHTCPPCPAPPAAGPSVFLFPPKPKDTLMISRTPEVTCVVVDVSHEDPEVKFNWYVDGVEVHNAKTKPREEQYNSTYRVVSVLTVLHQDWLNGKEYKCKVSNKALAAPIEKTISKAKGQPREPQVYTLPPSREEMTKNQVSLTCLVKGFYPSDIAVEWESNGQPENNYKTTPPVLDSDGSFFLYSKLTVDKSRWQQGNVFSCSVMHEALHNHYTQKSLSLSPGK
notes: Humanized BG523P variant, VHH-Fc
For the molecule B1, the koff stood at 0.000112 s⁻¹ in the experiment with cyno CD16-His6 [1], 0.00012 s⁻¹ with human CD16A-His6 (F158) [11] and 0.000103 s⁻¹ with human CD16A-His6 (V158) [12]. The kon is 267000 M⁻¹ s⁻¹ with cyno CD16-His6 [1], 210000 M⁻¹ s⁻¹ in the experiment with human CD16A-His6 (F158) [11] and 255000 M⁻¹ s⁻¹ in the experiment with human CD16A-His6 (V158) [12]. The EC50 turned out to be 6.83 nM in experiment [2], 10.3 nM in experiment [5] and 1.65 nM in [8]. Moreover, the “EMAX (MFI)” value was determined as 21900 MFI in experiment [2], 9710 MFI in experiment [5] and 23300 MFI in [8]. The Kd in the experiment with human CD16A-His6 (F158) [3] amounted to 0.575 nM; with human CD16A-His6 (V158) [4], 0.404 nM; with cyno CD16-His6 [7], 0.418 nM; with human CD16B-His6 (NA1) [9], 2310 nM; in the experiment with human CD16B-His6 (NA2) [10], 5780 nM. The “Binding signal at 300 nM (MFI)” value in [6] worked out at 733 MFI; in experiment [13], 75 MFI.

B2: BG526P (VHH-Fc) (VHH)
chain: EVQLVESGGGLVQPGGSLRLSCAASGRTFGSYAVGWFRQAPGKGREFVAAIRRSDATTDYVDSVKGRFTISRDNAKNTVYLQMNSLKPEDTAVYYCAASDSDYEPLGDYWGQGTLVTVSSEPKSSDKTHTCPPCPAPPAAGPSVFLFPPKPKDTLMISRTPEVTCVVVDVSHEDPEVKFNWYVDGVEVHNAKTKPREEQYNSTYRVVSVLTVLHQDWLNGKEYKCKVSNKALAAPIEKTISKAKGQPREPQVYTLPPSREEMTKNQVSLTCLVKGFYPSDIAVEWESNGQPENNYKTTPPVLDSDGSFFLYSKLTVDKSRWQQGNVFSCSVMHEALHNHYTQKSLSLSPGK
notes: as for B1
Consider B2, for which the off-rate (koff) was 0.000147 s⁻¹ with cyno CD16-His6 [1], 0.000148 s⁻¹ with human CD16A-His6 (F158) [11] and 0.000133 s⁻¹ in the experiment with human CD16A-His6 (V158) [12]. For the same molecule, the kon worked out at 301000 M⁻¹ s⁻¹ in the experiment with cyno CD16-His6 [1], 230000 M⁻¹ s⁻¹ with human CD16A-His6 (F158) [11] and 289000 M⁻¹ s⁻¹ with human CD16A-His6 (V158) [12]. In addition, the EC50 came to 4.95 nM in experiment [2], 9.1 nM in experiment [5] and 1.52 nM in experiment [8]. Besides, the “EMAX (MFI)” value was found to be 19600 MFI in [2], 9200 MFI in experiment [5] and 21600 MFI in [8]. In addition, the Kd with human CD16A-His6 (F158) [3] was 0.64 nM; with human CD16A-His6 (V158) [4], 0.425 nM; in the experiment with cyno CD16-His6 [7], 0.49 nM; in the experiment with human CD16B-His6 (NA1) [9] it was 2740 nM; with human CD16B-His6 (NA2) [10], 7640 nM. The “Binding signal at 300 nM (MFI)” value in experiment [6] worked out at 473 MFI; in experiment [13] it was 52 MFI.

B3: BG524P (VHH-Fc) (VHH)
chain: EVQLVESGGGLVQPGGSLRLSCAASGRTFGSYAVGWFRQAPGKGREWVAAIRRSDATTDYVDSVKGRFTISRDNAKNSVYLQMNSLRPEDTAVYYCAASDSDYEPLGDYWGQGTLVTVSSEPKSSDKTHTCPPCPAPPAAGPSVFLFPPKPKDTLMISRTPEVTCVVVDVSHEDPEVKFNWYVDGVEVHNAKTKPREEQYNSTYRVVSVLTVLHQDWLNGKEYKCKVSNKALAAPIEKTISKAKGQPREPQVYTLPPSREEMTKNQVSLTCLVKGFYPSDIAVEWESNGQPENNYKTTPPVLDSDGSFFLYSKLTVDKSRWQQGNVFSCSVMHEALHNHYTQKSLSLSPGK
notes: Humanized BG523P variant, VHH fused to the N-terminus of the human IgG1 variant Fc
In [14], B3 returned an EC50 of 4.42 nM. Moreover, the figures for the koff with human CD16A-His6 (F158) [15] and with human CD16A-His6 (V158) [16] were 0.000119 s⁻¹ and 0.00011 s⁻¹, respectively. Moreover, the figures for the kon in the experiment with human CD16A-His6 (F158) [15] and with human CD16A-His6 (V158) [16] were 1.44e+06 M⁻¹ s⁻¹ and 1.35e+06 M⁻¹ s⁻¹, respectively. The Kd in the experiment with human CD16B-His6 (NA1) [17] stood at 942 nM; with human CD16B-His6 (NA2) [18], 1050 nM; in the experiment with human CD16A-His6 (F158) [19], 0.0825 nM; with human CD16A-His6 (V158) [20] it was 0.0816 nM.
